Tested on: GST-p12_WT
Experiment: SILAC-MS of proteins enriched with GST-p12_WT relative to GST
Format: binding, Mo-MLV
Conditions: for SDs from the mean: log2(GST-p12_WT, Heavy/GST, Light)
Text: To test whether GST-p12 was acting like the p12 region of Gag, we used a global proteomic approach based on stable isotope labelling by amino acids in cell culture (SILAC)-mass spectrometry (MS) to look for host proteins that interact with GST-p12 [35, 36]. A schematic diagram of the workflow is illustrated in Fig 4A. Briefly, GST, GST-p12_mut14 and GST-p12_WT were transiently-expressed in 293T cells cultured in light (R0/K0), medium (R6/K4) and heavy (R10/K8) SILAC media, respectively. Next, lysates of nocodazole treated transfected cells were prepared, normalised and used for parallel pull-down assays with glutathione-sepharose beads. The eluates from the beads were then pooled in a 1:1:1 ratio and subjected to LC-MS/MS analysis. The experiment was performed using biological replicates to test reproducibility of the mass-spec hits. The pull-down assays for this experiment were performed using mitotic cell lysates to facilitate identification of any potential chromatin interactions that were previously missed.
After removal of obvious contaminants (e.g. keratin) and non-quantified hits, 948 and 879 proteins were identified in replicates 1 and 2 (R1 and R2) of the experiment respectively (the false discovery rate (FDR) was set at 5%). To select proteins enriched in the heavy-labelled (H) GST-p12_WT sample relative to the light-labelled (L) GST sample, we compared the log2(H/L) silac ratios of the mass-spectrometry hits. When plotted as a frequency distribution, the log2(H/L) ratios of each replicate fitted well to a normal distribution curve (R^2 ≥ 0.98), allowing the mean and standard deviation to be accurately estimated (Fig 4B). In this experiment, contaminants/non-specifically bound cellular proteins were assumed to cluster around the mean of the distribution. […] Twenty one such proteins were identified in R1 and 22 identified in R2 (Fig 4B Venn diagram). […] These proteins were then ranked based on normalised abundance in the group. In mass-spectrometry analysis, larger proteins are in general assigned higher scores. Therefore, to control for protein size, we divided the number of peptide spectral matches identified for each protein with its length and then normalised the values across the group (Fig 4C and 4D). When ranked this way, the clathrin heavy chain (CLTC), clathrin interactor 1 (CLINT1) and NEDD4-like E3 ubiquitin ligase (WWP2) were identified as the top three hits. […] The function of clathrin in MLV infection is unclear. […] Thus, clathrin binding may be relevant to the early stages of MLV replication and should be investigated further.
For SILAC-MS experiments, 293T cells were grown is media containing light (R0K0, ^12C-Arginine and ^12C-Lysine), medium (R6K4, ^13C-Arginine and Lysine-4,4,5,5-d4) or heavy (R10K8, ^13C+^15N-Arginine and ^13C+^15N-Lysine) versions of L-Arginine and L-Lysine amino acids (Pierce) for a minimum of 6 doublings before transient expression of GST-p12 proteins. After performing the glutathione-sepharose pull-down assays equivalent volumes of the beads eluates were pooled and submitted to the Bristol University Proteomics Facility for RP nano-LC-MS/MS analysis. This analysis was performed on an LTQ-Orbitrap Velos mass spectrometer in line with a Dionex Ultimate 3000 nanoHPLC system as described in [53].
Supplementary file ppat.1007117.s005.xlsx: S1 Table Results from the first SILAC-MS analysis. GST, Mo-MLV GST-p12_mut14 or GST-p12_WT were transiently-expressed in 293T cells cultured in light (R0/K0), medium (R6/K4) and heavy (R10/K8) SILAC media, respectively. Mitotic cell lysates were subsequently used for glutathione-sepharose bead pull-down assays. Bead eluates were pooled in a 1:1:1 ratio and then analysed by LC-MS/MS. […] (XLSX) Click here for additional data file.

B1: Clathrin light chain A: P09496 (protein)
chain: MAELDPFGAPAGAPGGPALGNGVAGAGEEDPAAAFLAQQESEIAGIENDEAFAILDGGAPGPQPHGEPPGGPDAVDGVMNGEYYQESNGPTDSYAAISQVDRLQSEPESIRKWREEQMERLEALDANSRKQEAEWKEKAIKELEEWYARQDEQLQKTKANNRVADEAFYKQPFADVIGYVTNINHPCYSLEQAAEEAFVNDIDESSPGTEWERVARLCDFNPKSSKQAKDVSRMRSVLISLKQAPLVH
Normalised (PSMs/Length) (Replicate 1): 7.412
PSMs (Replicate 1): 2
PSMs/Length (Replicate 1): 0.008065
Normalised (PSMs/Length) (Replicate 2): 7.2207
PSMs (Replicate 2): 2
PSMs/Length (Replicate 2): 0.008065
SDs from the mean (Replicate 2): 7.68

B2: Clathrin interactor 1: Q14677 (protein)
chain: MLNMWKVRELVDKATNVVMNYSEIESKVREATNDDPWGPSGQLMGEIAKATFMYEQFPELMNMLWSRMLKDNKKNWRRVYKSLLLLAYLIRNGSERVVTSAREHIYDLRSLENYHFVDEHGKDQGINIRQKVKELVEFAQDDDRLREERKKAKKNKDKYVGVSSDSVGGFRYSERYDPEPKSKWDEEWDKNKSAFPFSDKLGELSDKIGSTIDDTISKFRRKDREDSPERCSDSDEEKKARRGRSPKGEFKDEEETVTTKHIHITQATETTTTRHKRTANPSKTIDLGAAAHYTGDKASPDQNASTHTPQSSVKTSVPSSKSSGDLVDLFDGTSQSTGGSADLFGGFADFGSAAASGSFPSQVTATSGNGDFGDWSAFNQAPSGPVASSGEFFGSASQPAVELVSGSQSALGPPPAASNSSDLFDLMGSSQATMTSSQSMNFSMMSTNTVGLGLPMSRSQNTDMVQKSVSKTLPSTWSDPSVNISLDNLLPGMQPSKPQQPSLNTMIQQQNMQQPMNVMTQSFGAVNLSSPSNMLPVRPQTNALIGGPMPMSMPNVMTGTMGMAPLGNTPMMNQSMMGMNMNIGMSAAGMGLTGTMGMGMPNIAMTSGTVQPKQDAFANFANFSK
Normalised (PSMs/Length) (Replicate 1): 26.4693
PSMs (Replicate 1): 18
PSMs/Length (Replicate 1): 0.0288
Normalised (PSMs/Length) (Replicate 2): 22.9214
PSMs (Replicate 2): 16
PSMs/Length (Replicate 2): 0.0256
SDs from the mean (Replicate 2): 13.1531

Reference: article PMC6021111, “Murine leukemia virus p12 tethers the capsid-containing pre-integration complex to chromatin by binding directly to host nucleosomes in mitosis” (PLoS Pathogens, 2018)
